Assay results from US20230406921A1 (MABWELL SHANGHAI BIOSCIENCE, published 2023).

B1: anti-human CD47/PD-L1 bispecific antibody 2MW1531-m8 (bispecific antibody)
heavy 1: EVQLVQSGAEVKKPGASVKVSCKASGYKFTNYVMSWVRQAPGQRLEWMGYINPYNDAIKYNEKFTGRVTITRDTSASTAYMELSSLRSEDTAVYYCAREGDFYANYGRLGFAYWGQGTLVTVSSASTKGPSVFPLAPCSRSTSESTAALGCLVKDYFPEPVTVSWNSGALTSGVHTFPAVLQSSGLYSLSSVVTVPSSSLGTQTYTCNVDHKPSNTKVDKRVESKYGPPCPPCPAPEFLGGPSVFLFPPKPKDTLMISRTPEVTCVVVDVSQEDPEVQFNWYVDGVEVHNAKTKPREEQYNSTYRVVSVLTVLHQDWLNGKEYKCKVSNKGLPSSIEKTISKAKGQPREPQVYTLPPSQKEMTKNQVSLTCLVKGFYPSDIAVEWESNGQPENNYKTTPPVLDSDGSFFLYSKLTVDKSRWQEGNVFSCSVMHEALHNRYTQKSLSLSLGK
heavy 2: EVQLVQSGAEVKKPGATVKISCKVSGFNIKDIYMHWVQQAPGKGLEWMGRIDPANANTKYDPKFQDRVTITADTSTNTAYMELSSLRSEDTAVYYCASGQLGPLGFDYWGQGTTVTVSSASTKGPSVFPLAPCSRSTSESTAALGCLVKDYFPEPVTVSWNSGALTSGVHTFPAVLQSSGLYSLSSVVTVPSSSLGTQTYTCNVDHKPSNTKVDKRVESKYGPPCPPCPAPEFLGGPSVFLFPPKPKDTLMISRTPEVTCVVVDVSQEDPEVQFNWYVDGVEVHNAKTKPREEQYNSTYRVVSVLTVLHQDWLNGKEYKCKVSNKGLPSSIEKTISKAKGQPREPQVYTLPPSQEEMTKNQVSLTCLVKGFYPSDIAVEWESNGQPENNYKTTPPVLDSDGSFFLYSKLTVDKSRWQEGNVFSCSVMHEALHNHYTQESLSLSLGK
VL: DIQMTQSPSSLSASVGDRVTITCRASQDISNYLNWYQQKPGKAPKLLLYYTSRLHSGVPSRFSGSGSGTDYTLTISSLQPEDFATYFCQQGAGRPRTFGGGTKVEIKRTVAAPSVFIFPPSDEQLKSGTASVVCLLNNFYPREAKVQWKVDNALQSGNSQESVTEQDSKDSTYSLSSTLTLSKADYEKHKVYACEVTHQGLSSPVTKSFNRGEC
notes: Knobs-into-holes with a common light chain
B2: anti-human CD47/PD-L1 bispecific antibody 2MW1531-m9 (bispecific antibody, human IgG4 S228P, kappa)
heavy 1: EVQLVQSGAEVKKPGASVKVSCKASGYKFTNYVMSWVRQAPGQRLEWMGYINPYNDAIKYNEKFTGRVTITRDTSASTAYMELSSLRSEDTAVYYCAREGDFYANYGRLGFAYWGQGTLVTVSSASTKGPSVFPLAPCSRSTSESTAALGCLVKDYFPEPVTVSWNSGALTSGVHTFPAVLQSSGLYSLSSVVTVPSSSLGTQTYTCNVDHKPSNTKVDKRVESKYGPPCPPCPAPEFLGGPSVFLFPPKPKDTLMISRTPEVTCVVVDVSQEDPEVQFNWYVDGVEVHNAKTKPREEQYNSTYRVVSVLTVLHQDWLNGKEYKCKVSNKGLPSSIEKTISKAKGQPREPQVYTLPPSQKEMTKNQVSLTCLVKGFYPSDIAVEWESNGQPENNYKTTPPVLDSDGSFFLYSKLTVDKSRWQEGNVFSCSVMHEALHNRYTQKSLSLSLGK
heavy 2: EVQLVQSGAEVKKPGATVKISCKVSGFNIKDIYMHWVQQAPGKGLEWMGRIDPANANTKYDPKFQDRVTITADTSTNTAYMELSSLRSEDTAVYYCASGQLGPLGFDYWGQGTTVTVSSASTKGPSVFPLAPCSRSTSESTAALGCLVKDYFPEPVTVSWNSGALTSGVHTFPAVLQSSGLYSLSSVVTVPSSSLGTQTYTCNVDHKPSNTKVDKRVESKYGPPCPPCPAPEFLGGPSVFLFPPKPKDTLMISRTPEVTCVVVDVSQEDPEVQFNWYVDGVEVHNAKTKPREEQYNSTYRVVSVLTVLHQDWLNGKEYKCKVSNKGLPSSIEKTISKAKGQPREPQVYTLPPSQEEMTKNQVSLTCLVKGFYPSDIAVEWESNGQPENNYKTTPPVLDSDGSFFLYSKLTVDKSRWQEGNVFSCSVMHEALHNHYTQESLSLSLGK
VL: DIQMTQSPSSLSASVGDRVTITCRASQDISNYLNWYQQKPGKAPKLLLYYTSRLHSGVPSRFSGSGSGTDYTLTISSLQPEDFATYFCQQGDTFPYTFGGGTKVEIKRTVAAPSVFIFPPSDEQLKSGTASVVCLLNNFYPREAKVQWKVDNALQSGNSQESVTEQDSKDSTYSLSSTLTLSKADYEKHKVYACEVTHQGLSSPVTKSFNRGEC
notes: as for B1
B3: anti-human CD47/PD-L1 bispecific antibody 2MW1531-m10 (bispecific antibody)
heavy 1: EVQLVQSGAEVKKPGASVKVSCKASGYKFTNYVMSWVRQAPGQRLEWMGYINPYNDAIKYNEKFTGRVTITRDTSASTAYMELSSLRSEDTAVYYCAREGDFYANYGRLGFAYWGQGTLVTVSSASTKGPSVFPLAPCSRSTSESTAALGCLVKDYFPEPVTVSWNSGALTSGVHTFPAVLQSSGLYSLSSVVTVPSSSLGTQTYTCNVDHKPSNTKVDKRVESKYGPPCPPCPAPEFLGGPSVFLFPPKPKDTLMISRTPEVTCVVVDVSQEDPEVQFNWYVDGVEVHNAKTKPREEQYNSTYRVVSVLTVLHQDWLNGKEYKCKVSNKGLPSSIEKTISKAKGQPREPQVYTLPPSQKEMTKNQVSLTCLVKGFYPSDIAVEWESNGQPENNYKTTPPVLDSDGSFFLYSKLTVDKSRWQEGNVFSCSVMHEALHNRYTQKSLSLSLGK
heavy 2: EVQLVQSGAEVKKPGATVKISCKVSGFNIKDIYMHWVQQAPGKGLEWMGRIDPANANTKYDPKFQDRVTITADTSTNTAYMELSSLRSEDTAVYYCASGQLGPLGFDYWGQGTTVTVSSASTKGPSVFPLAPCSRSTSESTAALGCLVKDYFPEPVTVSWNSGALTSGVHTFPAVLQSSGLYSLSSVVTVPSSSLGTQTYTCNVDHKPSNTKVDKRVESKYGPPCPPCPAPEFLGGPSVFLFPPKPKDTLMISRTPEVTCVVVDVSQEDPEVQFNWYVDGVEVHNAKTKPREEQYNSTYRVVSVLTVLHQDWLNGKEYKCKVSNKGLPSSIEKTISKAKGQPREPQVYTLPPSQEEMTKNQVSLTCLVKGFYPSDIAVEWESNGQPENNYKTTPPVLDSDGSFFLYSKLTVDKSRWQEGNVFSCSVMHEALHNHYTQESLSLSLGK
VL: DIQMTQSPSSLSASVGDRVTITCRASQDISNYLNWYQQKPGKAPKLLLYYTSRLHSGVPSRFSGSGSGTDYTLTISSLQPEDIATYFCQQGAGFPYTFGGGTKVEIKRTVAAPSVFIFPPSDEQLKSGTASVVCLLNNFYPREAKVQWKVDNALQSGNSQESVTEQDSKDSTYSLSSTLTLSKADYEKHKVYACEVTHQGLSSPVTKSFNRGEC
notes: as for B1
B4: anti-human CD47/PD-L1 bispecific antibody 2MW1531-m11 (bispecific antibody)
heavy 1: EVQLVQSGAEVKKPGASVKVSCKASGYKFTNYVMSWVRQAPGQRLEWMGYINPYNDAIKYNEKFTGRVTITRDTSASTAYMELSSLRSEDTAVYYCAREGDFYANYGRLGFAYWGQGTLVTVSSASTKGPSVFPLAPCSRSTSESTAALGCLVKDYFPEPVTVSWNSGALTSGVHTFPAVLQSSGLYSLSSVVTVPSSSLGTQTYTCNVDHKPSNTKVDKRVESKYGPPCPPCPAPEFLGGPSVFLFPPKPKDTLMISRTPEVTCVVVDVSQEDPEVQFNWYVDGVEVHNAKTKPREEQYNSTYRVVSVLTVLHQDWLNGKEYKCKVSNKGLPSSIEKTISKAKGQPREPQVYTLPPSQKEMTKNQVSLTCLVKGFYPSDIAVEWESNGQPENNYKTTPPVLDSDGSFFLYSKLTVDKSRWQEGNVFSCSVMHEALHNRYTQKSLSLSLGK
heavy 2: EVQLVQSGAEVKKPGATVKISCKVSGFNIKDIYMHWVQQAPGKGLEWMGRIDPANANTKYDPKFQDRVTITADTSTNTAYMELSSLRSEDTAVYYCASGQLGPLGFDYWGQGTTVTVSSASTKGPSVFPLAPCSRSTSESTAALGCLVKDYFPEPVTVSWNSGALTSGVHTFPAVLQSSGLYSLSSVVTVPSSSLGTQTYTCNVDHKPSNTKVDKRVESKYGPPCPPCPAPEFLGGPSVFLFPPKPKDTLMISRTPEVTCVVVDVSQEDPEVQFNWYVDGVEVHNAKTKPREEQYNSTYRVVSVLTVLHQDWLNGKEYKCKVSNKGLPSSIEKTISKAKGQPREPQVYTLPPSQEEMTKNQVSLTCLVKGFYPSDIAVEWESNGQPENNYKTTPPVLDSDGSFFLYSKLTVDKSRWQEGNVFSCSVMHEALHNHYTQESLSLSLGK
VL: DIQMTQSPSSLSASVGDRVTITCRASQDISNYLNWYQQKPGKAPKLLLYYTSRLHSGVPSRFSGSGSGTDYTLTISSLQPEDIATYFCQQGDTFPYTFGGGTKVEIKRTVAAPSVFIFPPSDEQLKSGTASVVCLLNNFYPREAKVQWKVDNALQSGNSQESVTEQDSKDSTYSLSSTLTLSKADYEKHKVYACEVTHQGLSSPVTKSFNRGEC
notes: as for B1
B5: anti-human CD47/PD-L1 bispecific antibody 2MW1531-m3 (bispecific antibody)
heavy 1: EVQLVQSGAEVKKPGASVKVSCKASGYKFTNYVMSWVRQAPGQRLEWMGYINPYNDAIKYNEKFTGRVTITRDTSASTAYMELSSLRSEDTAVYYCAREGDFYANYGRLGFAYWGQGTLVTVSSASTKGPSVFPLAPCSRSTSESTAALGCLVKDYFPEPVTVSWNSGALTSGVHTFPAVLQSSGLYSLSSVVTVPSSSLGTQTYTCNVDHKPSNTKVDKRVESKYGPPCPPCPAPEFLGGPSVFLFPPKPKDTLMISRTPEVTCVVVDVSQEDPEVQFNWYVDGVEVHNAKTKPREEQYNSTYRVVSVLTVLHQDWLNGKEYKCKVSNKGLPSSIEKTISKAKGQPREPQVYTLPPSQKEMTKNQVSLTCLVKGFYPSDIAVEWESNGQPENNYKTTPPVLDSDGSFFLYSKLTVDKSRWQEGNVFSCSVMHEALHNRYTQKSLSLSLGK
heavy 2: EVQLVQSGAEVKKPGATVKISCKVSGFNIKDIYMHWVQQAPGKGLEWMGRIDPANANTKYDPKFQDRVTITADTSTNTAYMELSSLRSEDTAVYYCASGQLGPLGFDYWGQGTTVTVSSASTKGPSVFPLAPCSRSTSESTAALGCLVKDYFPEPVTVSWNSGALTSGVHTFPAVLQSSGLYSLSSVVTVPSSSLGTQTYTCNVDHKPSNTKVDKRVESKYGPPCPPCPAPEFLGGPSVFLFPPKPKDTLMISRTPEVTCVVVDVSQEDPEVQFNWYVDGVEVHNAKTKPREEQYNSTYRVVSVLTVLHQDWLNGKEYKCKVSNKGLPSSIEKTISKAKGQPREPQVYTLPPSQEEMTKNQVSLTCLVKGFYPSDIAVEWESNGQPENNYKTTPPVLDSDGSFFLYSKLTVDKSRWQEGNVFSCSVMHEALHNHYTQESLSLSLGK
VL: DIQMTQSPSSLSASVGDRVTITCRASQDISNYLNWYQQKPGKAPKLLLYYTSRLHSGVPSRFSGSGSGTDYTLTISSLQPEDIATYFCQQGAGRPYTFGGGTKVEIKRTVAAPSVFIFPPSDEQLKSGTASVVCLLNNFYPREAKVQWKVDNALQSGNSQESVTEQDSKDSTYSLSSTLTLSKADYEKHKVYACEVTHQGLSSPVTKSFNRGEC
notes: as for B1
B6: h140Hm13/h140Lm1 (antibody, V domains shown)
VH: EVQLVQSGAEVKKPGASVKVSCKASGYKFTNYVMSWVRQAPGQRLEWMGYINPYNDAIKYNEKFTGRVTITRDTSASTAYMELSSLRSEDTAVYYCAREGDFYANYGRLGFAYWGQGTLVTVSS
VL: DIQMTQSPSSLSASVGDRVTITCRASQDISNYLNWYQQKPGKAPKLLIYYTSRLHSGVPSRFSGSGSGTDYTFTISSLQPEDIATYFCQQGDTFPRTFGGGTKVEIK
notes: also called h140Lml

Assays:
[1] = target: T1, recombinant antigen of the extracellular region of CD47 (Sino Biological, Cat: 12283-H08H) (human, UniProt Q08722 19-139); test: Fortebio BLI
T1 construct: extracellular domain; also called recombinant CD47 extracellular region; CD47 recombinant protein

PD-L1 = PD-L1 (human, UniProt Q9NZQ7 19-239, limits assumed); test: Fortebio BLI
[2] = target: T2, CD47 on the surface of human red blood cells (human, UniProt Q08722 19-323); test: FACS, human red blood cells, antibody 1000 nM
T2 construct: whole, on cells; Same protein as m3, on red blood cells; also called hRBC; RBC
Method: (§1) In the experiment of analyzing the binding to human red blood cells, the antibody was used at a concentration of 1000 nM; and in the experiment of analyzing the binding to tumor cells, the antibody was used at a concentration of 100 nM.

[3] = target: T3, CD47 on the surface of tumor cells (human, UniProt Q08722 19-323); test: FACS, SKOV-3 tumor cells (no PD-L1), antibody 100 nM
T3 construct: whole, on cells; Same protein as m4; also called CD47 antigen on the surface of U937 and CCRF cells; SKOV-3
Method: as §1

[4] = target: T2, CD47 on the surface of human red blood …; test: FACS, hRBC, 500 nM
Method: The difference between the binding of the mutant to CD47 on the surface of tumor cells and CD47 on the surface of red blood cells was evaluated.

Sequence of PD-L1 (Q9NZQ7 19-239 limits assumed): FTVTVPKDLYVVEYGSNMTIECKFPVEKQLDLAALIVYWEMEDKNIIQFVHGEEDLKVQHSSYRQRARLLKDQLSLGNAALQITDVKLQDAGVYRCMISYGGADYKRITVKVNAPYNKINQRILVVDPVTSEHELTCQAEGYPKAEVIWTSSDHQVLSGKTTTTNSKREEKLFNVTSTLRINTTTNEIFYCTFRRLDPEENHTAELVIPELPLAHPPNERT

Binder | Kd [1] [nM] | koff [1] [s⁻¹] | kon [1] [M⁻¹ s⁻¹] | Kd (PD-L1) [nM] | koff (PD-L1) [s⁻¹] | kon (PD-L1) [M⁻¹ s⁻¹] | Binding to human red blood cells (MFI) [2] [MFI] | Binding to tumor cells (MFI) [3] [MFI] | FACS (MFI) [4] [MFI]
B1 | 107 | 0.00937 | 87900 | 0.546 | 0.000134 | 245000 | 763 | 28200 | –
B2 | 79.6 | 0.00947 | 119000 | 0.706 | 0.000272 | 385000 | 781 | 37800 | –
B3 | 54.8 | 0.00547 | 99800 | 1.28 | 0.000369 | 288000 | 890 | 26200 | –
B4 | 74.9 | 0.00907 | 121000 | 0.784 | 0.000237 | 302000 | 878 | 28900 | –
B5 | 65.7 | 0.00769 | 117000 | 1.02 | 0.000163 | 159000 | 955 | 34900 | –
B6 | – | – | – | – | – | – | – | – | 28700
